To fix the notation:
B1: Polycomb protein Sfmbt (Drosophila melanogaster (Fruit fly)), Q9VK33 (parent)
chain: MNPSELRMMWMSSQYNSERITLEDAATLLGHPTVGLSVMEDLSAHQPTLDMNPMMSLMGGDFTGQAAATAAALGVQPGTLIATNSNNLYGFAHMGGLQQQLLQQSAAAAVFQNYAEAMDNDVENGMVGMAMEAVVDDDDQVYGQRDNNFDDNGSELEPKQEIINIDDFVMMNEDNNSYDGTDFMTSSDKDISQSSSSCMAQMPGSLGVPGVEHDLLVPLPDGLLHHKLLGTTLVPAMGTLNGNAFGNIMVSTENTSSKQMQRTYSTAKGANSTATTATCSASTSSALRSQRKTRKIEPVNRPGLVLKTPIAYRGNIDPSVIPIQKDGMAVCKRCGAIGVKHTFYTKSRRFCSMACARGELYSLVLNTKMEGDQATTSSPDPGAGSESADLPGDQQQSQSDIELDLHAAHIKNANYRFRITDQSKITQLNSFGEPMSMGGDAAANNVQMAADETIAALNGGAVGDATAPGSTEEGASTPNSYLSAAPTPKALRLFKDIYPQDDLPQIPKYERLPVPCPQMEKIISIRRRMYDPTHSYDWLPRLSKENFNAAPVTCFPHAPGCEVWDNLGVGMKVEVENTDCDSIEVIQPGQTPTSFWVATILEIKGYKALMSYEGFDTDSHDFWVNLCNAEVHSVGWCATRGKPLIPPRTIEHKYKDWKDFLVGRLSGARTLPSNFYNKINDSLQSRFRLGLNLECVDKDRISQVRLATVTKIVGKRLFLRYFDSDDGFWCHEDSPIIHPVGWATTVGHNLAAPQDYLERMLAGREAMIEVHEDDATIELFKMNFTFDEYYSDGKTNSFVEGMKLEAVDPLNLSSICPATVMAVLKFGYMMIRIDSYQPDASGSDWFCYHEKSPCIFPAGFCSVNNISVTPPNGYDSRTFTWEGYLRDTGAVAAGQHLFHRIIPDHGFEVGMSLECADLMDPRLVCVATVARVVGRLLKVHFDGWTDEYDQWLDCESADIYPVGWCVLVNHKLEGPPRVAHQQAPKPAPKPKIQRKRKPKKGAAGGKTPTDNNTQSVKSRTIALKTTPHLPKLSIKLELKPEHHNAAFYENNQPEEEGDEEDPDADGDGDGSTSHISEQSTTQSSSDLIAGSGSGSGSASLVTLATGSNKTNSSATNNKYIPRLADIDSSEPHLELVPDTWNVYDVSQFLRVNDCTAHCDTFSRNKIDGKRLLQLTKDDIMPLLGMKVGPALKISDLIAQLKCKVNPGRARSHKTNKSPFL

One assay covers variants of B1. As to conditions: with h4_human H4C16, P62805.
Regarding D917A, the “effect of a mutation on the interaction” value is reported as “disrupting interaction”.

In a further assay the parent is B1. As to conditions: with h33_human H3-3A.
As for D917A, the “effect of a mutation on the interaction” value was “disrupting interaction”.

A further assay covers variants of B1. As to conditions: with h4_human H4C16, P62805. This is another data set of the same source.
Y948F: the “effect of a mutation on the interaction” value is on record as “decreasing interaction”.

For the variant E947A, the “effect of a mutation on the interaction” value is recorded as “decreasing interaction”.

In another assay the parent is B1. The following applies: with h4_human H4C16, P62805. This is another data set of the same source.
Consider Y948F, for which the “effect of a mutation on the interaction” value is “disrupting interaction”.

Consider E947A, for which the “effect of a mutation on the interaction” value is reported as “disrupting interaction”.

The variants in another assay derive from B1. The following applies: with h33_human H3-3A. This is another data set of the same source.
Consider D808A, for which the “effect of a mutation on the interaction” value was “decreasing interaction”.

The variants in the next assay derive from B1. The following applies: with h4_human H4C16, P62805. The source holds these as a separate data set.
Take D808A: the “effect of a mutation on the interaction” value is given as “decreasing interaction”.

In a further assay the parent is B1. As to conditions: with h4_human H4C16, P62805. This is another data set of the same source.
Turning to D697A, the “effect of a mutation on the interaction” value is on record as “decreasing interaction”.

The variants in a further assay derive from B1. The following applies: with h33_human H3-3A. The source holds these as a separate data set.
For D697A, the “effect of a mutation on the interaction” value was “increasing interaction”.

For the origin of these results see IntAct's records for PubMed 19494831.
